Assay results from patent US20120058906A1 (published 2012).
Residue numbers refer to the chain shown, from its start.

Columns and labels:
[1] = target: T1, rHuman Notch-1/Fc Chimera, CF (R&D Systems Cat#3647-TK) (human, UniProt P46531 19-526); test: ECL (MSD Multi-Spot) binding assay, antigen spotted on plate; Fab 120 nM; blank spot 363;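 also: blank spot per well as comparator with Hit at signal to blank ratio of 4 or more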
T1 construct: Bought Fc chimera; Fc part of the bought chimera not given

[2] = target: T2, rHuman CD44/Fc Chimera, CF (R&D Systems Cat#3660-CD) (human, UniProt P16070 21-220); test: as above
T2 construct: Bought Fc chimera; Fc part of the bought chimera not given

[3] = target: T3, Recombinant Human DLL4 (R&D Systems Cat#1506-D4/CF) (human, UniProt Q9NR61 27-524); test: as above
T3 construct: Bought recombinant protein; also called delta-like protein 4; rHuman DLL4

[4] = target: T4, rHuman Erythropoietin R/Fc Chimera, CF (R&D Systems Cat#963-ER) (human, UniProt P19235 25-250); test: as above
T4 construct: Bought Fc chimera; also called EPO R/Fc; Epo R; Fc part of the bought chimera not given
T4 sequence: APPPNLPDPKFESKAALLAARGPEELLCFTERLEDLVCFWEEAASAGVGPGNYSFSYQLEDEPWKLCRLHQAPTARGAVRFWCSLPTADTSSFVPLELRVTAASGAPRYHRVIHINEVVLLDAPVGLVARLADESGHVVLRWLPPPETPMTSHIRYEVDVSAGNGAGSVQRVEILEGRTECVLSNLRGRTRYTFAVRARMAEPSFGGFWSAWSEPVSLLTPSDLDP

[5] = target: T5, rHuman P-Cadherin/Fc Chimera, CF (R&D Systems Cat#861-PC) (human, UniProt P22223 108-654); test: as above
T5 construct: Bought Fc chimera; also called CDH3; Fc part of the bought chimera not given

[6] = target: T6, rHuman P-Cadherin/Fc Chimera, CF (R&D Systems Cat#861-PC) (human, UniProt P22223 108-654); test: ECL (MSD Multi-Spot) binding, antigen spotted on plate; Fab 50 nM;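 also: blank spot per well as comparator with Hit at signal to blank ratio of 4 or more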
T6 construct: Bought Fc chimera; Fc part of the bought chimera not given

[7] = target: T7, rHuman Notch-1/Fc Chimera, CF (R&D Systems Cat#3647-TK) (human, UniProt P46531 19-526); test: as above
T7 construct: Bought Fc chimera; Fc part of the bought chimera not given

[8] = target: T8, Recombinant Human DLL4 (R&D Systems Cat#1506-D4/CF) (human, UniProt Q9NR61 27-524); test: as above
T8 construct: Bought recombinant protein; also called delta-like protein 4

[9] = target: T9, rHuman ErbB2/Fc Chimera, CF (R&D Systems Cat#1129-ER) (human, UniProt P04626 23-652); test: as above
T9 construct: Bought Fc chimera; also called human epidermal growth factor 2 receptor; HER2/neu; Fc part of the bought chimera not given

[10] = target: T10, rHuman CD44/Fc Chimera, CF (R&D Systems Cat#3660-CD) (human, UniProt P16070 21-220); test: as above
T10 construct: Bought Fc chimera; Fc part of the bought chimera not given

[11] = target: T11, rHuman HGF R/c-MET/Fc Chimera, CF (R&D Systems Cat#358-MT/CF) (human, UniProt P08581 25-932); test: as above
T11 construct: Bought Fc chimera; also called HGF R/Fc; hepatocyte growth factor receptor; Fc part of the bought chimera not given

[12] = target: T12, rHuman HGF R/c-MET/Fc Chimera, CF (R&D Systems Cat#358-MT/CF) (human, UniProt P08581 25-932); test: ECL (MSD multi-spot), antigen on plate, Fab 5 nM
T12 construct: Bought Fc chimera; also called HGF R/Fc; not shown: Fc of the bought chimera

[13] = target: T13, rHuman P-Cadherin/Fc Chimera, CF (R&D Systems Cat#861-PC) (human, UniProt P22223 108-654); test: ECL (MSD multi-spot), antigen on plate, Fab 5 nM
T13 construct: Bought Fc chimera; also called CDH3; not shown: Fc of the bought chimera

[14] = target: T14, rHuman IGF-1 sR (insulin-like growth factor-1 soluble receptor), CF (R&D Systems Cat#391-GR) (human, UniProt P08069 31-932); test: ECL (MSD multi-spot), antigen on plate, Fab 5 nM
T14 construct: Bought soluble receptor; also called IGF-R1

[15] = target: T15, rHuman Notch-1/Fc Chimera, CF (R&D Systems Cat#3647-TK) (human, UniProt P46531 19-526); test: ECL (MSD multi-spot), antigen on plate, Fab 5 nM
T15 construct: Bought Fc chimera; not shown: Fc of the bought chimera

[16] = target: T16, rHuman ErbB2/Fc Chimera, CF (R&D Systems Cat#1129-ER) (human, UniProt P04626 23-652); test: ECL (MSD multi-spot), antigen on plate, Fab 5 nM
T16 construct: Bought Fc chimera; also called HER2/neu; not shown: Fc of the bought chimera

[17] = target: T17, rHuman Erythropoietin R/Fc Chimera, CF (R&D Systems Cat#963-ER) (human, UniProt P19235 25-250); test: ECL (MSD multi-spot), antigen on plate, Fab 5 nM
T17 construct: Bought Fc chimera; also called EPO R/Fc; Epo R; not shown: Fc of the bought chimera
T17 sequence: T4 sequence

[18] = target: T18, Recombinant Human DLL4 (R&D Systems Cat#1506-D4/CF) (human, UniProt Q9NR61 27-524); test: ECL (MSD multi-spot), antigen on plate, Fab 5 nM
T18 construct: Bought recombinant protein; also called delta-like protein 4

[19] = target: T19, rHuman EGF R/Fc Chimera, CF (R&D Systems Cat#344-ER) (human, UniProt P00533 25-645); test: ECL (MSD multi-spot), antigen on plate, Fab 5 nM
T19 construct: Bought Fc chimera; also called ErbB-1; not shown: Fc of the bought chimera

B1: Fab VH6-1_IGHD3-3*01_IGHJ4*01 & V4-3_IGLJ4*01 (Fab, V domains shown)
VH: QVQLQQSGPGLVKPSQTLSLTCAISGDSVSSNSAAWNWIRQSPSRGLEWLGRTYYRSKWYNDYAVSVKSRITINPDTSKNQFSLQLNSVTPEDTAVYYCAREYYDFWSGYYTDYFDYWGQGTLVTVSS
VL: QPVLTQPTSLSASPGASARLTCTLRSGINLGSYRIFWYQQKPESPPRYLLSYYSDSSKHQGSGVPSRFSGSKDASSNAGILVISGLQSEDEADYYCMIWHSSASFVFGGGTQLIIL
notes: Tested as a Fab made in E. coli; also called IGHV6-1*01
[1]
  ECL signal: 472
[2]
  ECL signal: 442
[3]
  ECL signal: 938
[4]
  ECL signal: 431
[5]
  ECL signal: 450

B2: Fab VH1-46_IGHD6-6*01_IGHJ1*01_S102A_S103P_S104F_H111Y & L6_IGKJ1*01 (Fab, V domains shown)
VH: QVQLVQSGAEVKKPGASVKVSCKASGYTFTSYYMHWVRQAPGQGLEWMGIINPSGGSTSYAQKFQGRVTMTRDTSTSTVYMELSSLRSEDTAVYYCAREEYAPFSAEYFQYWGQGTLVTVSS
VL: not shown
notes: Fab made in E. coli; The heavy chain also carries the CH1 with Flag and His tags of Plasmid A, and the light chain the kappa constant region of Plasmid C
[6]
  ECL signal: 626
[7]
  ECL signal: 475
[8]
  ECL signal: 207000
[9]
  ECL signal: 589
[10]
  ECL signal: 433
[11]
  ECL signal: 325

B3: Fab VH1-46_IGHD6-6*01_IGHJ1*01_S102A_S103P_S104Y_H111Y & L6_IGKJ1*01 (Fab, V domains shown)
VH: B2 VH with F104Y
VL: not shown
notes: Fab made in E. coli; The heavy chain also carries CH1 with Flag and His tags from Plasmid A, and the light chain carries kappa CL from Plasmid C
[12]
  ECL signal: 3100 ECL signal
[13]
  ECL signal: 4160 ECL signal
[14]
  ECL signal: 3030 ECL signal
[15]
  ECL signal: 3230 ECL signal
[16]
  ECL signal: 2860 ECL signal
[17]
  ECL signal: 3580 ECL signal
[18]
  ECL signal: 73400 ECL signal
[19]
  ECL signal: 2980 ECL signal
